According to patent publication US20040091945A1, “Peptides and methods of screening immunogenic peptide vaccines against Alzheimer's Disease” (priority 2002, published 2004):

target: T1, recombinant HLA A0201 (heavy chain produced in E. coli, with human beta2-microglobulin) (human); test: competition with iodinated [..] for recombinant HLA A0201; 1 uM unlabelled peptide; details: not given
T1 construct: also called rHLA A0201; HLA-A2.01

Molecule	binding result
GLMVGGVVI [Peptide 1, GLMVGGVVI, derived from Abeta 1-42]	binds
KLVFFAEDV [Peptide 2, KLVFFAEDV, derived from Abeta 1-42]	binds
LMVGGVVIA (6) [Peptide 10, LMVGGVVIA, derived from Abeta 1-42]	binds
IIGLMVGGV [Peptide 6, IIGLMVGGV, derived from Abeta 1-42]	binds

target: recombinant HLA A0201 (Homo sapiens, UniProt P04439, D140Y/D185E/D98H/E176V/E277Q/G131W/G231S/I119V/I121R/I166T/I218V/L300P/L318F/N151K/N90K/P208A/P217A/Q86G/Q94H/R138H/R169H/T345S); test: Competition with radiolabelled control peptide for binding to recombinant HLA A0201; details: initial screening, 1 uM peptide, 1 nM rHLA A0201 (FIG. 1)
Method: FIG. 1: FIG. 1: Binding of radiolabelled peptide to 1 nM rHLA A0201 in absence or presence of 1 uM Abeta 1-42 or homologue-derived peptides (numbered 1-10; see Table 4). Binding is shown relative to measured binding without competition (maximal binding). The control peptide (ctrl): […] (SEQ ID NO. 1).
The binding (or lack thereof) of HLA-A2.01 epitopes derived from the Abeta homologue LV/EE (modifications at positions 17 and 18) was tested in an in vitro system to validate the computer predictions. Comparisons were made to predicted epitopes from the wild-type human Abeta 1-42 sequence. Recombinant HLA A0201 heavy chains were produced in E. coli and purified from inclusion bodies according to a standard procedure described elsewhere (Ostergaard Pederson, L. et al. 2001). Briefly, HLA 0201 heavy chains (1 nM were incubated for 4 hr. at room temperature with 1 nM iodinated control binding peptide ([…]-SEQ ID No. 1; this peptide has a score of 607.884 when submitted to the ILA Peptide Binding Prediction program at BIMAS), 1000 nM human β2M and graded doses (indicated in figures) of unlabelled peptide of interest (derived from Abeta or its homologue). Receptor bound and free peptide were separated by G25 spun column chromatography (Buus, S. et al. 1995) and counted in a gamma counter (Cobra). The peptides used in this study are listed in Table 4: […]

Molecule	ability to compete away the binding of the control radiolabeled peptide to recombinant HLA-A201 molecules
AEFRHDSGY	did not bind well
FRHDSGYEV	did not bind well
GLMVGGVVI	able to compete
HHQKEEFFA	did not bind well
IIGLMVGGV	able to compete
KEEFFAEDV	did not bind well
KLVFFAEDV	able to compete
LMVGGVVIA	able to compete
YEVHHQKEE	did not bind well
YEVHHQKLV	did not bind well
